Test results published in US20070025968A1, “Methods for selecting and producing T cell peptide epitopes and vaccines incorporating said selected epitopes” (priority 1996, published 2007).

Target: other cell components, including other HLA class I alleles, of the B-LCL lines

Q: With “FL-labeled HLA-A*0301 reference peptide KVFPC(FL)ALINK” as the substance, how does the relative peptide-binding percentage read?
A: Its relative peptide-binding percentage is less than 20%.
